According to the supplement of paper PMC9170038:

Test system: MS2 coat protein
Experiment: apparent KD of MS2 coat protein; designed switch direction (-1 OFF switch, 1 ON switch): -1; higher = weaker reporter binding
In short: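 Three titration conditions were used: no input, 200 uM small-molecule ligand, and an oligonucleotide input. In each, SNAP-549-labelled MS2 coat protein was raised from 0.7 or 1.5 nM, doubling, to 3 µM over designed RNA switches transcribed on Illumina chips by stalled E. coli RNA polymerase. Curve fits of normalised cluster fluorescence gave values whose per-design median over clusters is the apparent KD.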

[1] = Eterna round: R95, input ligand: FMN 200 uM
[2] = Eterna round: R95, input ligand: microRNA oligo, concentration not stated
[3] = Eterna round: R95, input ligand: none
[4] = input ligand: microRNA oligo, concentration not stated

Row | Sequence | apparent KD of MS2 coat protein (input ligand: FMN 200 uM) | apparent KD of MS2 coat protein (input ligand: none) | apparent KD of MS2 coat protein [1] | apparent KD of MS2 coat protein [2] | apparent KD of MS2 coat protein [3] | apparent KD of MS2 coat protein [4]
1 | CGGCCGCAAGUCAGGAUAUGGACCUGCUUGGAGGACCAGAAGGGACAUGAGGAUCACCCAUGUGAUGAAAUAAA [BmEX4 A.24] (Eterna round: R97, puzzle: Brourd's mod of Exclusion 4) | 37.8 nM | 28.3 nM |  |  |  | 
2 | CGGCUGUGAGGAUAUGCCAGGCCGGGCACUCCGCCGCCAGCGCAGAAGGCACAUGAGGAUCACCCAUGUCAAAG [Eternabot (L2) Solution 82] (Eterna round: R97, puzzle: Exclusion 4) | 27.5 nM | 23.9 nM |  |  |  | 
3 | CGUACUGAAGUGAGGAUAUUGUCUCGGAUACGAAACAAGAAGGCACAUGAGGAUCACCCAUGUAGACAGUACGA [Malc #30 mod 2] (puzzle: Brourd's mod of Exclusion 4) |  |  | 15.1 nM | 17.3 nM | 15.7 nM | 
4 | CGUAUCUUUCACGUGAGUAGUGGGUGCAACAGGUGGGUUACAUGAGGAUCACCCAUGUACUCACUUGCUCGUCUUAU [Grok-var2-06] (puzzle: Sensor v3, turn-off variant 2) |  |  | 38 nM | 23.4 nM | 34.3 nM | 
5 | CGUCAGUCAGGAUAUACUUACGUAGACAUGAGGAUCACCCAUGUGACGUGGGACUGGUGAGUAGAAGGGACGAACA [EX5 #76] (Eterna round: R97, puzzle: Exclusion 5) | 27.3 nM | 18.1 nM |  |  |  | 
6 | CGUCCACAUGAGGAUCACCCAUGUUAGGAUAUAAACGCCGUAGUCCAAGGACGGGCCUUUAGAAGGAGCGCGGG [Onaredgeso] (puzzle: Exclusion 1) |  |  |  | 12.3 nM |  | 
7 | CGUCUGUAAGGAUAUGGUUACAUAGACAUGAGGAUCACCCAUGUGACGUGGGACUAGUGAUUAGAAGGUACGAACG [EX5 #66] (Eterna round: R97, puzzle: Exclusion 5) | 77 nM | 78.6 nM |  |  |  | 
8 | CGUCUGUCAGGAUAUACUUACGUAGACAUGAGGAUCACCCAUGUGACGUGGGACUAGUGAGUAGAAGGGACGAACA [EX5 #74] (Eterna round: R97, puzzle: Exclusion 5) | 68.4 nM | 46.7 nM |  |  |  | 
9 | CGUCUGUGAGGAUAUGGUAUCGUUUACAUGAGGAUCACCCAUGUUACAUGGGACUAGAGACUAGAAGGUACGAACG [EX5 #49] (Eterna round: R97, puzzle: Exclusion 5) | 212 nM | 320 nM |  |  |  | 
10 | CGUGCGUAUGUGAGGAUAUGCUGGUCCUUGGAUCGGCAGAAGGCACAUGAGGAUCACCCAUGUGGUGUCGUACC [salish99_Bmod_ex4_074] (puzzle: Brourd's mod of Exclusion 4) |  |  |  | 123 nM |  | 
11 | CGUGCGUAUGUGAGGAUAUGCUGGUCCUUGGAUCGGCAGAAGGCACAUGAGGAUCACCCAUGUGGUGUCGUACU [salish99_Bmod_ex4_081] (puzzle: Brourd's mod of Exclusion 4) |  |  |  | 216 nM |  | 
12 | CGUGCGUAUGUGAGGAUAUGCUGGUCCUUGGAUCGGCAGAAGGCACAUGAGGAUCACCCAUGUGGUGUCGUUCG [salish99_Bmod_ex4_093] (puzzle: Brourd's mod of Exclusion 4) |  |  |  | 126 nM |  | 
13 | CGUGUAGGAGUAGGAUAUGCGUCUAGACUACGAGCAGAAGGACUCCAGGACUUGAGGAUCACCCAAGUGCGUCCCGAGCCGUAG [Mutated MS2 EX1.23] (Eterna round: R96, puzzle: Exclusion NG 1) | 11.9 nM | 12 nM |  |  |  | 11.7 nM
14 | CUAAAUCAUGUAGGAUAUGCAUAGCGAAGCUAUGCAGAAGGACAUGAGGAUCACCCAUGUUCUUCCGUCUGAGAACAGACGGAA [Mat - Exclusion NG 1 - Mod of JL - D32] (Eterna round: R96, puzzle: Exclusion NG 1) | 164 nM | 32.5 nM |  |  |  | 21.1 nM
15 | CUAAAUCAUGUAGGAUAUGCAUAGCGAAGCUAUGCAGAAGGACAUGAGGAUCACCCAUGUUCUUCCGUCUGAGUACAGACGGAA [Mat - Exclusion NG 1 - Mod of JL - D31] (Eterna round: R96, puzzle: Exclusion NG 1) | 288 nM | 34.1 nM |  |  |  | 30.6 nM
16 | CUAACAUGCUGGUGAUCAUACAUGAGGAUCACCCAUGUAACAAGCUUUUUGCUCGUCUUAUAAGAUUACUAGUAUGU [Stov1/10-A4] (Eterna round: R97, puzzle: Sensor, turn-off variant 1) | 21.4 nM | 21.9 nM |  |  |  | 
17 | CUAACAUGCUGGUGAUCAUACAUGAGGAUCACCCAUGUAACAAGCUUUUUGUUCGUCUUAUAAGAUCACCAGCAUGU [Stov1/9-B3] (Eterna round: R97, puzzle: Sensor, turn-off variant 1) | 13.8 nM | 18.2 nM |  |  |  | 

Row | Sequence | apparent KD of MS2 coat protein (input ligand: FMN 200 uM) | apparent KD of MS2 coat protein (input ligand: none) | apparent KD of MS2 coat protein [1] | apparent KD of MS2 coat protein [2] | apparent KD of MS2 coat protein [3] | apparent KD of MS2 coat protein [4]
18 | CUAAUACAUCAGGAUAUGUGUCGUGAUAGCGACACAGAAGGGAUGACAUGAGGAUCACCCAUGUCAAAGGGUGA [eternacac ex6r4 sub23] (Eterna round: R97, puzzle: Exclusion 6) | 388 nM | 519 nM |  |  |  | 
19 | CUAAUAGCAGCAGGAUAUCUCACAUGAGGAUCACCCAUGUGGGACCGCCACCUCGUGUGUAAAGAAGAGAAGGGCUCGCACUCC [Eternabot solution 6] (Eterna round: R96, puzzle: Exclusion NG 2) | 37.6 nM | 26.1 nM |  |  |  | 12.8 nM
20 | CUAAUAUAUCAGGAUAUGAUUUUAUGUGUUGGAUCAGAAGGGAUAACAUGAGGAUCACCCAUGUUGUGGAGUGA [JR_Ex6_Sub037] (Eterna round: R97, puzzle: Exclusion 6) | 271 nM | 112 nM |  |  |  | 
21 | CUAGAUCAUUGGAUCUAGUACAUGAGGAUCACCCAUGUGACGAGUUACAUGUUAUAUAAGCUUUUUGCUCGUCAUUU [AK 1] (puzzle: Sensor v3, turn-off variant 1) |  |  | 63.4 nM | 81.1 nM | 86.3 nM | 
22 | CUAGAUCUUCGGAUCUAGUACAUGAGGAUCACCCAUGUGACGAGUUUAUGGGUGAACAAGCUUUUUGCUCGUCUUAU [Sensor v3 - Turn-off variant 1 - 7] (puzzle: Sensor v3, turn-off variant 1) |  |  | 71.4 nM | 16.5 nM | 84.8 nM | 
23 | CUAGCGAGUGUAGGAUAUCGGACUGUUUCAGUCUGAGAAGGACAUGAGGAUCACCCAUGUAUUGCUACGUGAGUAGCACGCUAG [JL ENG1 3.00] (Eterna round: R96, puzzle: Exclusion NG 1) | 32.9 nM | 19 nM |  |  |  | 17.5 nM
24 | CUAGCGAGUGUAGGAUAUCGGACUGUUUCAGUCUGAGAAGGACAUGAGGAUCACCCAUGUAUUGCUGCGUGAGUAGCACGCUAG [JL ENG1 3.99] (Eterna round: R96, puzzle: Exclusion NG 1) | 32.4 nM | 19.5 nM |  |  |  | 15.6 nM
25 | CUAGCUUCGGCUAGUACAAGCUUUUUGCUCGUCUUAUUAACAUGAGGAUCACCCAUGUCAAAGAGACCUCAUGUAUU [Sensor v3 - turn-off variant 2 - 2] (puzzle: Sensor v3, turn-off variant 2) |  |  | 347 nM | 15.5 nM | 572 nM | 
26 | CUAUGGCAAGGAUAUACGUAUCAUGUGACGAUAGCUCAAGAACAUGAGGAUCACCCAUGUAGAAGGUGCGGAGA [Eternabot (L1) Solution 90] (Eterna round: R97, puzzle: Exclusion 2) | 54.2 nM | 54.6 nM |  |  |  | 
27 | CUAUGUUAGCAGGAUAUGCCAUUAUUCUUUUUCGCAGAAGGGCUUACAUGAGGAUCACCCAUGUUACAUUUCUU [JR_E6_Sub086] (Eterna round: R96, puzzle: Exclusion 6) | 42.6 nM | 18.5 nM |  |  |  | 14.9 nM
28 | CUAUGUUAGCAGGAUAUGCCAUUAUUCUUUUUCGCAGAAGGGCUUACAUGAGGAUCACCCAUGUUACAUUUCUU [JR_E6_Sub086] (puzzle: Exclusion 6) |  |  |  | 16.7 nM |  | 
29 | CUAUUCCGAGGAUAUACAUGAGGAUCACCCAUGUCGGGCCUCUGGCCUAAGGCCGAAAGUAGAAGGUGGGUUUC [JL Riri mod 10] (puzzle: Exclusion 3) |  |  |  | 54.2 nM |  | 
30 | CUCAUACAUGAGGAUCACCCAUGUGAGGAUAUACUCCGCACCACACAGGUCGGGUAGCGUAGAAGGUAUUGGGU [Eternabot (L1) Solution 85] (Eterna round: R97, puzzle: Exclusion 1) | 96.3 nM | 168 nM |  |  |  | 
31 | CUCCAGACAGGAUAUACGAGGCUGUGUUCCCAUUAUAGGACACAUGAGGAUCACCCAUGUAGAAGGGUCAAUGG [Eternabot (L1) Solution 28] (Eterna round: R97, puzzle: Exclusion 2) | 286 nM | 742 nM |  |  |  | 
32 | CUCCGGCAUGUAGGAUAUGGAUCCGAUUAGGAUCCAGAAGGACAUGAGGAUCACCCAUGUACAUGUAAACAGUCAUCACCGGAC [salish99_ExNG1_r04_202] (Eterna round: R96, puzzle: Exclusion NG 1) | 284 nM | 44.2 nM |  |  |  | 29.9 nM
33 | CUCCGGCGUGUAGGAUAUGGUUCCGUUUAGGUUCCAGAAGGACAUGAGGAUCACCCAUGUACAUGUCGUCGGUCGUCACCGGGC [salish99_ExNG1_r04_213] (Eterna round: R96, puzzle: Exclusion NG 1) | 87.3 nM | 33.1 nM |  |  |  | 28.8 nM
